The target in assay [1] is T1, human FLT3 (Fms Related Receptor Tyrosine Kinase 3) expressed on cells (human, UniProt P36888 27-993).
T1 construct: whole, on cells; Same entry used for all cell lines; also called FLK2
T1 sequence (looked up): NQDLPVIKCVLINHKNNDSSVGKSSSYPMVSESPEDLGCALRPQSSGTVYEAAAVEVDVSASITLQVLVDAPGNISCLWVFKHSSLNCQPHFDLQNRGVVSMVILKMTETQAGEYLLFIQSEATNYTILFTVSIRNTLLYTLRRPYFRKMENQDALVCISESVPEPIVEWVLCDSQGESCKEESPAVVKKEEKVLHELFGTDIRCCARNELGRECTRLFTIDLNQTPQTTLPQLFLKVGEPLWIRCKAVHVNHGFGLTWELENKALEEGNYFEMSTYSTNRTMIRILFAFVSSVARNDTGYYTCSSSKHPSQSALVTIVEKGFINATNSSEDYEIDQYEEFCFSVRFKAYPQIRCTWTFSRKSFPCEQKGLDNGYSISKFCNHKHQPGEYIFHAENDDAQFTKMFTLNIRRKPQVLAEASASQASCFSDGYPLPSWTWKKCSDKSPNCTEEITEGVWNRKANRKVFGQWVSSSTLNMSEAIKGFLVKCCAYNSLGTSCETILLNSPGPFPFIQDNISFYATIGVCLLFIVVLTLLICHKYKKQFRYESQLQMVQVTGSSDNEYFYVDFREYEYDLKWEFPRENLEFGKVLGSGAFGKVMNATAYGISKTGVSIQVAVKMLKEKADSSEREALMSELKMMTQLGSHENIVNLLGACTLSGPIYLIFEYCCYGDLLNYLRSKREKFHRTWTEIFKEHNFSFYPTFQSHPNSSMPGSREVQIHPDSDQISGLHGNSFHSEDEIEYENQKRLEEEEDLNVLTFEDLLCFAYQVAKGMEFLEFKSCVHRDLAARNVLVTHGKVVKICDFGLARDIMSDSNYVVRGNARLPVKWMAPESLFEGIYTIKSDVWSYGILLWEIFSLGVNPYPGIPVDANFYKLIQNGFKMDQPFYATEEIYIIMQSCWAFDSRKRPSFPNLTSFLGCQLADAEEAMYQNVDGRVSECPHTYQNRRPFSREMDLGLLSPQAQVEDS
The assay is described as follows: flow cytometry on FLT3+ NOMO-1 cells. The source says:
(§1) Cells were washed five times with flow buffer and stained with anti-human IgG lambda antibody conjugated to FITC (Southern Biotech 2070-02). Cells were stained with 7-AAD (7-AAD Viability Staining Solution, Biolegend 420404) followed by flow cytometry analysis. […] Binding of bispecific antibody to cells should directly correlate with FLT3 expression.

The target of assay [2] is T2, human CD3 on the surface of T cells / Jurkat cells (human, UniProt P07766 23-207; P09693 23-182; P04234 22-171).
T2 construct: whole, on cells
T2 sequence (P07766 23-207, chain 1 of 3): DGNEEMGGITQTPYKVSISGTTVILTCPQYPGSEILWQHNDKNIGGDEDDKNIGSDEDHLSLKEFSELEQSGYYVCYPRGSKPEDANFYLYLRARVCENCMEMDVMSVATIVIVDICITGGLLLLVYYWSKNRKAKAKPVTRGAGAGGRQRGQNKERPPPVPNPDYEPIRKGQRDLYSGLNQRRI
T2 sequence (P09693 23-182, chain 2 of 3): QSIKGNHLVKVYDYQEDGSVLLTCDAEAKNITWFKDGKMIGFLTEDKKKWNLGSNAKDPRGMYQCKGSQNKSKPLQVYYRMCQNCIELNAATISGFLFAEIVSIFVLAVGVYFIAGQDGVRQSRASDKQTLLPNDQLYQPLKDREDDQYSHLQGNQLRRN
T2 sequence (P04234 22-171, chain 3 of 3): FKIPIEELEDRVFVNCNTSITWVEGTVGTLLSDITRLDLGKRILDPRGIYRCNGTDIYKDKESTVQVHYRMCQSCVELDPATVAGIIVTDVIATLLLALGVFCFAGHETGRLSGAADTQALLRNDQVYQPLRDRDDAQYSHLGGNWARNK
Kind of assay: flow cytometry on CD3+ Jurkat cells. The source says: (§2) Cells were washed five times with flow buffer and stained with anti-human IgG lambda antibody conjugated to FITC (Southern Biotech 2070-02). Cells were stained with 7-AAD (7-AAD Viability Staining Solution, Biolegend 420404) followed by flow cytometry analysis.
(In general: A flow cytometer gives signals particle by particle.)

Assay [3] has as its target T1, human FLT3 (Fms Related Receptor …). Kind of assay: flow cytometry on FLT3+ REH cells.
Text: as §2

Assay [4] shares this target. The assay is described as follows: flow cytometry on FLT3+ MOLM-13 cells.
Text: as §1

Assay [5] has the same target. Kind of assay: cell-based or functional assay.
Assay [6] addresses T2, human CD3 on the surface of T cells / …. Kind of assay: flow cytometry on CD3+ primary T cells.
Text: as §2

Assay [7] deals with T1, human FLT3 (Fms Related Receptor …). The assay is described as follows: flow cytometry on FLT3+ HL-60 cells.
Text: as §1

For assay [8] the target is unchanged. The assay is described as follows: flow cytometry on FLT3+ OCI-AML cells.
Text: as §1

Assay [9] has the same target. Kind of assay: flow cytometry on FLT3+ THP-1 cells.
Text: as §1

For assay [10], the target named is T2, human CD3 on the surface of T cells / …. The assay is described as follows: flow cytometry on CD3+ human T cells.
Text: as §2

Assay [11] addresses T1, human FLT3 (Fms Related Receptor …). Kind of assay: flow cytometry on FLT3+ MV4-11 cells.
Text: as §1

For assay [12], the target named is T3, Recombinant Human CD3 epsilon Fc Chimera Protein (R&D, no. 9850-CD-050) (human, UniProt P07766 23-126).
T3 construct: Bought reagent; Fc part of the bought chimera not given
T3 sequence (P07766 23-126, change not shown): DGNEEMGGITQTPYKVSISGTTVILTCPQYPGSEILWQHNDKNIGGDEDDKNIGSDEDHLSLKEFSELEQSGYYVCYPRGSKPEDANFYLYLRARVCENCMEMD
Kind of assay: ELISA, plate coated with recombinant human CD3 epsilon Fc chimera. As for the experimental part: The plate was washed with wash buffer (PBS (Caisson Labs, no. PBL06)+0.05% Tween20 (ThermoFisher, no. 28320)) The plate was blocked with blocking buffer (PBS (Caisson Labs, no. PBL06)+1% (w/v) BSA (Rockland, no. BSA-50)+0.05% Tween20 (ThermoFisher, no 28320)) for two hours at room temperature (RT). Plate was washed twice with wash buffer. […] Plate was washed 4× with wash buffer. Plate was incubated with 100 μL per well of 1:200 goat anti-human lambda-HRP secondary antibody (SouthernBiotech, no. 2070-05) for one hour at RT. Plate was washed 4× with wash buffer. Plate was incubated with 100 μL per well of TMB Substrate (ThermoFisher Cat #34029) for 20 minutes protected from light. Stop solution (2N H₂SO₄) was added to each well. Absorbance of wells was recorded at 450 nm on an Envision plate reader (PerkinElmer). […] Variable slope (four parameters) curve was fit to the data and EC50 was used to compare binding affinities.
In general terms: In an ELISA, binding on a coated surface is turned into a signal by an enzyme label.

Where “and” joins values, the source holds several entries; their conditions need not be identical. Equal values may be shown once.

This is an account of results in patent US20240368288A1 (HEMOGENYX PHARMACEUTICALS, published 2024).

B1: CD3xFLT3 bispecific antibody 118BA #3 (bispecific antibody, human IgG1, lambda)
heavy: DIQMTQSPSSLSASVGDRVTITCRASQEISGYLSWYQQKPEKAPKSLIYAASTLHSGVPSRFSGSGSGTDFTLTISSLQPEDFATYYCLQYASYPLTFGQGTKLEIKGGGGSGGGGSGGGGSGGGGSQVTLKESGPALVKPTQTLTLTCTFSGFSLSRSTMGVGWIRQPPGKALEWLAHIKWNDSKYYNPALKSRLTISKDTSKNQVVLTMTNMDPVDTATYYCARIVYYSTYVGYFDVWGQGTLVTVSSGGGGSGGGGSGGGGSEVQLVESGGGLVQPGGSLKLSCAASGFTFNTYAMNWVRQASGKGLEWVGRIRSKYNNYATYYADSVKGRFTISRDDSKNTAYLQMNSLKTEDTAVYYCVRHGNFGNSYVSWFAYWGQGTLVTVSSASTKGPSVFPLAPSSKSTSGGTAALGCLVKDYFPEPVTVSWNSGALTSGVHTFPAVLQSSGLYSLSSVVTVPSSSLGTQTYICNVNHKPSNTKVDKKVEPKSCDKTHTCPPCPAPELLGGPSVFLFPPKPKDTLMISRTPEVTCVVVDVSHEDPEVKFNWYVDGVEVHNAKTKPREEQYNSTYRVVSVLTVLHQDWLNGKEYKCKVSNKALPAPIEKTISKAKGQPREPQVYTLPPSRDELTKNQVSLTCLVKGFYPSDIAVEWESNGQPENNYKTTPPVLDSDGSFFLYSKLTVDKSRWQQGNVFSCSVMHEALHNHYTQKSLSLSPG
light: QAVVTQEPSFSVSPGGTVTLTCGSSTGAVTTSNYANWVQQTPGQAFRGLIGGTNKRSSGVPDRFSGSLLGDKAALTITGAQADDESDYYCALWYSNLWVFGGGTKLTVLGGQPKAAPSVTLFPPSSEELQANKATLVCLISDFYPGAVTVAWKADSSPVKAGVETTTPSKQSNNKYAASSYLSLTPEQWKSHRSYSCQVTHEGSTVEKTVAPTECS
notes: also called #3 WT
For orientation: EC50 means the concentration that produces a half-maximal response. Turning to B1, the EC50 in assay [1] is 6.75 nM; in assay [2], 4.18 nM; in assay [3], 0.5 nM and 0.87 nM and 0.6 nM; in [4] it was 0.4 nM; in [6], 14.2 nM; in assay [7] it was 1.02 nM. Also, the half-maximal effective concentration (EC50) in [8] is 1.86 nM; in [9], 5.74 nM; in assay [10], 13.8 nM; in assay [11], 6.33 nM; in assay [12] it was 0.011 µg/mL and 0.06 nM. The “EC50 of cytotoxicity against HL-60” value in [5] is 0.014 nM. The “EC50 of cytotoxicity against MOLM-13” value in assay [5] was found to be 0.0157 nM. In addition, the “EC50 of cytotoxicity against MV4-11” value in assay [5] worked out at 0.022 nM. The “EC50 of cytotoxicity against NOMO-1” value in assay [5] is 0.003 nM. Moreover, in [5], the “EC50 of cytotoxicity against OCI-AML” value was 0.002 nM. Further, the “EC50 of cytotoxicity against REH” value in assay [5] stood at 0.01 nM. In addition, the “EC50 of cytotoxicity against REH cells” value in assay [5] was 0.01 nM and 0.006 nM. Moreover, in [5], the “EC50 of cytotoxicity against THP-1” value is 0.00025 nM.
